# From the DeepSol protein solubility set
# Test: soluble on expression in E. coli; label from the status in PepcDB or PDB records
row,Sequence,soluble on expression in E. coli
1,QGMNNPADAGINLNYLANVRPSSRQLAWQRMEMYAFLHFGMNTMTDREWGLGHEDPALFNPRNVDVDQWMDALVAGGMAGVILTCKHHDGFCLWPSRLTRHTVASSPWREGKGDLVREVSESARRHGLKFGVYLSPWDRTEESYGKGKAYDDFYVGQLTELLTQYGPIFSVWLDGANGEGKNGKTQYYDWDRYYNVIRSLQPDAVISVCGPDVRWAGNEAGHVRDNEWSVVPRRLRSAELTMEKSQQEDDASFATTVSSQDDDLGSREAVAGYGDNVCWYPAEVDTSIRPGWFYHQSEDDKVMSADQLFDLWLSAVGGNSSLLLNIPPSPEGLLAEPDVQSLKGLGRRVSEFREALASVRCEARTSSASAAAAHLVDGNRDTFWRPDADDAAPAITLTLPQPTTINAIVIEEAIEHGQRIEHLRVTGALPDGTERVLGQAGTVGYRRILRFDDVEVSSVTLHVDGSRLAPMISRAAAVRI,soluble
2,QILVVRGQVIFPFVPFSLDVGRPRSRKIIKALKTLKTKRLVLVTQKFTGEQNPEFNDIYHVGTLCEIDEIVDVPGVDSKTVDYRIKGRGLQRVLIEKFSDADINEVSYQLLNSTVKDEANVDRFLQRIFPEKEEIEQLMEGAEKFLELENISKTVNVPKGLKQLDIITFKLANLVPNTESIKQAILEENEIANRLEKIIQA,soluble
3,QKKIADRLMKFEEQLPEALDIIKRVLQAGQPITQAFGEVGREVSAPLGPEFLNTFNLLNYGYDLRLAIMQMSERTPTVSMLAFSSAVLLQKETGGNLVENIEKLSHILRARFKLARKIKTISAESRMS,not soluble
4,QLSPDIYAKSCPNLVQIVRKQVAIALKAEIRMAASLIRLHFHDCFVNGCDASLLLDGADSEKLAIPNINSARGFEVIDTIKAAVENACPGVVSCADILTLAARDSVVLSGGPGWRVALGRKDGLVANQNSANNLPSPFEPLDAIIAKFVAVNLNITDVVALSGAHTFGQAKCAVFSNRLFNFTGAGNPDATLETSLLSNLQTVCPLGGNSNITAPLDRSTTDTFDNNYFKNLLEGKGLLSSDQILFSSDLAVNTTKKLVEAYSRSQSLFFRDFTCAMIRMGNISNGASGEVRTNCRVINN,soluble
5,QMAGIYQALANDGQRIEPRIIEKVVDSSGNEVEQQPPAETRVVSAQTARTVVDMFRGVVQKDPTGINSGTGAGAAVDGYQVSGKTGTAQQVDPNTGAYSNSNYWITFAGIAPADNPRFVVALMLDKPHRGVHGEGGQSAAPLFHDIASWILDRDNVPLSPPMEGQLVLQAQ,not soluble
6,QMPQPLAYAQALLAQFASLARAVNGAQLLGDFVRSLAELSGCELSQLYLLDATHKCLKMRAECLDGTLQPREAASLPVDYNGEQLLQFALCQNRVVCLGELSGSLHETSFLPTQSTPWQSLLCVPVVNHQQAVEGLLLCASRRHVDLQGFADSLGQFGSFALGQLNLLQRLHKPADEVRPAGITMPSVSGYG,not soluble
7,QQLSMELESARAFNASVLANVAEGILVVDEAGNISFANPAICQLLNASVDQLRGTQVLDYVIEPQVSSWLESGFYQHYRKADTYRVHDAILRTAQGSQLPVALSCAALPAEQKAMVLTVLDMS,not soluble
8,QRHQKNQNQQRIQALLEESQRRLKQMINKTHVGLLLINEQGQLFDLNPMAKRLFCLPENVNRQTFAWELFDAGNPNSTTLTLLRDLPKHKELAEISAVETMARRSDGSVFPVLFSLTTFPWHGELYFLATLIDISKRKKAEQSLQLINQELAQRVEERTQALRQAQEQLIESSKMAALGRMSSAITHELNQPLTGLRTLLTTNELLAERGETAMMKANNVLVQKLIDRMASMTSQLKTFAYNKPEKLQALSLTSALEETLRVYQSQLANVDVRVRIPSDLPQIQGEEQRLQQVLGNLISNALDAMQSRDNPQLSIVVTPTNSHVEVVVSDNGCGVALEQLDTIFEPFQTSKKIGEGLGLGLSITANNMRDMNGQVTAKRNPGSGMSFLLRFQLANTID,not soluble
9,QRISLEIMTLQPRCEDVETAEGVALTVTGVAQVKIMTEKELLAVACEQFLGKNVQDIKNVVLQTLEGHLRSILGTLTVEQIYQDRDQFAKLVREVAAPDVGRMGIEILSFTIKDVYDKVDYLSSLGKTQT,soluble
10,QRKVSVAGAITTMDPAQLEVPATNIVNTLAGRVAGVIGVQSSGEPGKNISEFWVRGIGTFGANSGALVLIDGLEGSLSQIDAADVESFSVLKDAAATAVYGSRGANGVVLVTTKRGLES,not soluble
11,QTLRALAERAARIEQDPAAGDYMSALRELPFIRELMAGRLPLQWAPARMVSDDPAKGLGKAPPAGLLTQQLRNILGEPRRTLDLVSPYFVPAEAGTQAFAALARGGAQVRVLTNALEATDVAVVHSGYAKRRKALLQAGVRLYEMRRSYAGPKPQGRGRFGSSGSSLHAKTFGVDGERVFIGSFNFDPRSANLNTELGFVIESPDMARHIAATFDQDIPAATYEVRLDDDGSLYWLE,not soluble
12,QTTKRIRDQEKATALQTAEMVAEAPMTAAALESGKKQKELQSYTKRVQKITGTEFVVVMDMNGIRKTHPDPSKIGKKFRGGDESEVLKGHVHISTASGTLGKSQRAFVPVYAENGKQVGAVAVGITVNEIDEVISHSLRP,not soluble
13,QVQLVESGGGLVQPGGSLRLSCATSGFTFTDYYMSWVRQPPGKALEWLGFIRNKANGYTTEYSASVKGRFTISRDNSQSILYLQMNTLRAEDSATYYCARDGSYAMDYWGQGTSVTVSSASTKGPSVFPLAPSSKSTSGGTAALGCLVKDYFPEPVTVSWNSGALTSGVHTFPAVLQSSGLYSLSSVVTVPSSSLGTQTYICNVNHKPSNTKVDKKVEP,soluble
14,QVTISITEDCPNNCIHCALPDTKNRAKLSPETVRDVIDQVLEMGTTFVIFDGGEPLTYPGLEELISYVDPEKAITGMFTSGVGLTEERARSLKAAGLYSLTVSFDSAYEEKHDYVRGRKGVFKSAVEAVKNGLAAGLLVNIYVVLSRDNVNELDELYNLAAGLGAHELSFYEIVPTGRWMDHASEIMTPKDMRK,not soluble
15,RAETAVQRTEDRYHNLVDTAPIPILLFDRDWKALYANEAAIAFLDADSFTEIAGKKASDFLHPDERDAARKRFQRLMREGVSVPEREYRVMTAEGEVKTATIATAPGYYRGEQVAQAMV,not soluble
16,RAKAFIDAANQYSINELYLISHALLETGNGTSALANGLTYNGKTVYNMYGIGAYDSNPNYYGAKYAYEQGWFTPEAAIIGGAKFIGSSYIHNTAYNQDTLYKMRWSATATHQYATDIGWAYKQVNRMYSLYSLLDG,not soluble
17,RATDPFIVKHPLTGEKTIIAGYPWFSDWGRDVMISFPGLVLIPRRFEDAKSILKNFSSNCRRGLIPNNFPAFGGEPVYNTVDASLWFIHSLSRYFAYTEDLLFLSDIWGTVEDIIDNYSKGTDFGIGMDSDYLIRQGPQLTWMDAKVNDIPVTPRAGKACEINALWYNALRTACRLGDLLGRDTSSYETLAAGVASNFERVFWNPENNCLHDIVSEDKAGNQIKDSSIRPNQIFAVSLPYTMLSPEKEKAIVDRVEKDLLTPFGLRTLSLDDPSYIGLYRGGSESRDSAYHNGTVWPWLLGPYVKAYRKVHNYSKKSLEDMRALLQGFDSHLETAGIGTISEVFDGDFPHSPGGCIAQAWSVAEILRAYVEDVLGIKP,not soluble
18,REINGATRWIPLGPLNFQPTELFKLAVILYLASLFTRREEVLRSMESLGWQSIWRGTANLIMSATNPQARRETLEMYGRFR,not soluble
19,REKGIVEPSCGVTANAIMKLFLDKDGFSYCFENEQTLSLEQLQERLSCMPECKSFVLRVNDGALGHAYIVDIPKGENSCRPAFLYQSDLGEGVTRKLRFEDWMTHKALTPILLDDICNYFSCMSQNKTDLEQIATLFDIDGNVKMLRKENIQYQKHDNFSFQLFEYDTDNIEKNIEIIKSLCSGAAALEHHHHHH,soluble
20,RESITDSRMAYRTISPFLTDLPQEEMWVLLLNQSGKIISMENLSRGGVSETSADVRLIMHKAVSHLASAIILAHNHPSGTVRPSEQDIQLTQRVQKAATLLGFRLNDHLIIGDDGAYFSFADEGLL,not soluble
21,RGSHHHHHHGSAVQVTFTVQKGSDPKKLVLDIKYTRPGDSLAEVELRQHGSEEWEPLTKKGNVWEVKSSKPLVGPFNFRFMSKGGMRNVFDEVIPTAFSIGKTYKPEE,soluble
22,RHAGVVTAVERHGESLLEVTCRLQGDWSHRAGQFAFLTCDRLEGAHPFTIASADRGCGEVRFSIKALGDYTRRLQDNLEVGARVEVEGPYGCFDFRRGLAGRQVWVAAGIGVTPFIAWLESLQAAPESAPSVELHYCVRNSQEALFAGRLRELCEH,not soluble
23,RHVTGVHSPTKPASYSVKWTIEEKELFEQGLAKFGRRWTKISKLIGSRTVLQVKSYARQYFKNKVKCGLDKETPNQKTGHNLQVKNEDKGTKAWTPSCLRGRADPNLNAVKIEKLSDDEEVDITDEVDELSSQTPQKNSSSDLLLDFPNSKMHETNQGEFIASDSQEALFSKSSRGCLQNEKQDETLSSSEITLWTEKQSNGDKKSIELNDQKFNELIKNCNKHDGRGIIVDARQLPSPEPCEIQKNLNDNEMLFHSCQMVEESHEEEELKPPEQEIEIDRNIIQEEEKQAIPEFFEGRQAKTPERYLKIRNYILDQWEICKPKYLNKTSVRPGLKNCGDVNCIGRIHTYLELIGAINFGCEQAVYNRPQTVDKVRIRDRKDAVEAYQLAQRLQSMRTRRRRVRDPWGNWCDAKDLEGQTFEHLSAEELAKRREEEKGRPVKSLKVPRPTKSSFDPFQLIPCNFFSEEKQEPFQVKVASEALLIMDLHAHVSMAEVIGLLGGRYSEVDKVVEVCAAEPCNSLSTGLQCEMDPVSQTQASETLAVRGFSVIGWYHSHPAFDPNPSLRDIDTQAKYQSYFSRGGAKFIGMIVSPYNRNNPLPYSQITCLVISEEISPDGSYRLPYKFEVQQMLEEPQWGLVFEKTRWIIEKYRLSHSSVPMDKIFRRDSDLTCLQKLLECMRKTLSKVTNCFMAEEFLTEIENLFLSNYKSNQENGVTEENCTKELLM,soluble
24,RKPSFLALPGHLVKSEETVILQCWSDVMFEHFLLHREGKFNNTLHLIGEHHDGVSKANFSIGPMMPVLAGTYRCYGSVPHSPYQLSAPSDPLDMVIIGLYEKPSLSAQPGPTVQAGENVTLSCSSRSSYDMYHLSREGEAHERRLPAVRSINGTFQADFPLGPATHGGTYRCFGSFRDAPYEWSNSSDPLLVSVT,soluble
25,RKPTALIILDGFGLREETYGNAVAQAKKPNFDGYWNKFPHTTLTACGEAVGLPEGQMGNSEVGHLNIGAGRIVYQSLTRVNVAIREGEFDKNETFQSAIKSVKEKGTALHLFGLLSDGGVHSHMNHMFALLRLAAKEGVEKVYIHAFLDGRDVGPKTAQSYIDATNEVIKETGVGQFATISGRYYSMDRDKRWDRVEKCYRAMVNGEGPTYKSAEECVEDSYANGIYDEFVLPSVIVNEDNTPVATINDDDAVIFYNFRPDRAIQIARVFTNGDFREFDRGEKVPHIPEFVCMTHFSETVDGYVAFKPMNLDNTLGEVVAQAGLKQLRIAETEKYPHVTFFFSGGREAEFPGEERILINSPKVATYDLKPEMSIYEVTDALVNEIENDKHDVIILNFANCDMVGHSGMMEPTIKAVEATDECLGKVVEAILAKDGVALITADHGNADEELTSEGEPMTAHTTNPVPFIVTKNDVELREDGILGDIAPTMLTLLGVEQPKEMTGKTIIK,soluble
